# Data published in the nanobody polyreactivity screen of Harvey et al. (2022).
# Test: yeast display, Sf9 membrane polyspecificity reagent, FACS + sequencing; frameworks hold sequencing errors
# In short: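 Using colony PCR, genes from sorted yeast display clones were amplified, then sequenced on MiSeq at 2 × 250 and filtered by CDR length. The clones had been stained with 10% biotinylated, detergent-solubilized Sf9 membrane reagent for 1 hour at 4 °C and sorted by FACS into low and high (top ~1%) gates on anti-HA and streptavidin fluorescence. Polyreactivity labels come from the gate of origin.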
row,Sequence,polyreactivity (PSR sort gate)
1,QVQLVESGGGLVQAGGSLRLSCAASGSTFVSYDMGWYRQAPGKERELVAAIDWSGGNTDYADSVKGRFTISRDNAKNTVYLQMNSLKPEDNAVYYCAVEKFFRAEYDHWGQGTQVTVSS,low polyreactivity
2,QVQLVESGGGLVQAGGSLRLSCAASGSTFVTNDMGWYRQAPGKERELVAAISSGTSTNYADSVKGRFTISRDNAKNTVYLQMNSLKPEDTAVYYCAADSLKRYDYWGQGTQVTVSS,low polyreactivity
3,QVQLVESGGGLVQAGGSLRLSCAASGSTFVTYAMGWYRQAPGKEREFVAAISTTGTGRTYYADSVKGRFTISRDNAKNTVYLQMNSLKPEDTAVYYCAADLYGTYDYWGQGTQVTVSS,low polyreactivity
4,QVQLVESGGGLVQAGGSLRLSCAASGSTFVTYAMGWYRQAPGKERELVASISRGGSTKYADSVKGRFTISRDNAKNTVYLQMNSLKPEDTAVYYCAAKAKNYRLGPFDYWGQGTQVTVSS,low polyreactivity
5,QVQLVESGGGLVQAGGSLRLSCAASGSTFVTYARGWYRQAPGKERELVAAISRRAGRTYYADSVKGRFTISRDNAQNTVSLQMNSLKPEDTAVYYCAKQAYEAFYTGDDYDYWGQGTKVTVSS,high polyreactivity
6,QVQLVESGGGLVQAGGSLRLSCAASGSTFVVNAMGWYRPAQGKERELVAAISRSGTSTYYADSVKGRFTISRDNAKKTVYLQMNSLKPEDSAVYYCNAVGSYYPPDYWGQGTQVTVSS,high polyreactivity
7,QVQLVESGGGLVQAGGSLRLSCAASGSTFVVNAMGWYRQAPGKERELVAAIDGSDGSTYYADSVKGRFTISRDNAKNTVYLQMNSLKPEDTAVYYCAAEVLGRPDVENDYWGQGTQVTVSS,low polyreactivity
8,QVQLVESGGGLVQAGGSLRLSCAASGSTFVVNAMGWYRQAPGKERELVAAITQSGGSTFYADSVKGRFTISRDNAKNTVYFQMNSLKPEDTAVYYWGQGTQVTVSS,low polyreactivity
9,QVQLVESGGGLVQAGGSLRLSCAASGSTFVVNAMGWYSQAPGKERELVAAIDGSDGSTYYADSVKGRFTISRDNAKNTVYLQMNSLKPEDTAVYYCAAEVLGRPDVENDYWGQGTHVTVSS,low polyreactivity
10,QVQLVESGGGLVQAGGSLRLSCAASGSTFVWNAMGWYRQAPGKERELVAAITSSGGSTYYADSVKGRFTISRDNAKNTVYLQMNSLKPEDTAVYYCAATGVNYRGLLGVAWGNNYWGQGTQVTVSS,low polyreactivity
11,QVQLVESGGGLVQAGGSLRLSCAASGSTFVWYAMGWYRQAPGKEREFVATISWSDGSTYYADSVKGRFTISRDNAKNTVYLQMNSLKPEDTAVYYCASDVDRFFTYKYDYWGQGTQVTVSS,low polyreactivity
12,QVQLVESGGGLVQAGGSLRLSCAASGSTFVWYAMVWYRQAPGKEREFVATISWSDGSTYYADSVKGRFTISRDNAKNTVYLLMNSLKPEVTAVYYCASDVDRFFSYKYDYWGQGTQVTVSS,low polyreactivity
13,QVQLVESGGGLVQAGGSLRLSCAASGSTFVYNAMGSYRQAPGKEREFVAAISGSGGSTYYADSVKGRFTISRDNAKNTVYLQMNSLKPEDTAVYYCATAGRYGLYRTYPYRSKYDYWGQGTQVTVSS,high polyreactivity
14,QVQLVESGGGLVQAGGSLRLSCAASGSTFVYNAMGWYRPAPGKERELVAAISARTGRTYYADSVKGRFTISRDNAKNTVYLQMNSLKPEDTAVYYCAAGLIVGRFLRYDYWGQGTQVTVSS,high polyreactivity
15,QVQLVESGGGLVQAGGSLRLSCAASGSTFVYNAMGWYRQAPGKERELVAAISARTGRTYYADSVKGRFTISRDNAKNTVYLQMNSLKPEDTAVYYCARRYYTGYKNLPYGYWGQGTQVTVSS,high polyreactivity
16,QVQLVESGGGLVQAGGSLRLSCAASGSTFVYNTMGWYTQAPGKERELVAGIDWSGGRTFYADSVKGRFTISRDNAKNTVYLQMNSLKPEDTAVYYCAKRLRVYRPWTYNYWGQGTQVTVSS,high polyreactivity
17,QVQLVESGGGLVQAGGSLRLSCAASGSTFVYNVMGWYRQAPGKERELVAAITSCVRTYYADSVKGRFTISRDNAKNTVYLQMNSLKPEDTAVYYCAARGYYSVVEYYYWGQGTQVTVSS,high polyreactivity
18,QVQLVESGGGLVQAGGSLRLSCAASGSTFVYYAMGWYRQAPGKERELGAAITASGGGTYYADSVKGRFTISRDNAKNTVYLQMNSLKPEDTAVYYCNRGYDYWGQGTQVTVSS,low polyreactivity
19,QVQLVESGGGLVQAGGSLRLSCAASGSTFVYYAMGWYRQAPGKERELVADISWSGGDTYYADSVKGRFTISRDNAKNTVYFQMNSLKPEDTAVYYCAAEWSTPSYVGFADGFEYWGQGTQVTVSS,low polyreactivity
20,QVQLVESGGGLVQAGGSLRLSCAASGSTFVYYGMGWYRQAPGKERELVAAITDIGDSTNYADSVKGRFTISRDNAKNTVYLQMNSLKPEDTAVYYCAASGRSVPYYGSPRNDYWGQGTQVTVSS,low polyreactivity
21,QVQLVESGGGLVQAGGSLRLSCAASGSTFWANAMGWYRQAPGKERELVAAITSTGITYYADSVKGRFTISRDNAKNTVYLQMNSLKPEDTAVYYCAADGYRYSVYLIRNPMDYWGQGTQVTVSS,low polyreactivity
22,QVQLVESGGGLVQAGGSLRLSCAASGSTFWAYAMGWYRQAPGKERELVAAITTGGGRTFYADSVKGRFTISRDNAKNTVYLQMNSLKPEDTAVYYCAAVSQSYRMYYWGEGTQVTVSS,low polyreactivity

row,Sequence,polyreactivity (PSR sort gate)
1,QVQLVESGGGLVQAGGSLRLSCAASGSTFWAYVMGWYRQAPGKERELVAAISKSGVRTHYADSVKGRFTISRDNAKNTVYLQMNSLKPEDTAVYYCAAGGVGNLDDYWGQVTQVTVSS,high polyreactivity
2,QVQLVESGGGLVQAGGSLRLSCAASGSTFWFNAMGWYRQAPGKERELVAISGSVGSTYADSVKGRFTISRDNAKNTVYLQMNSLKPEDTAVYYCNADSVWYRNPWSFSPRYNYWGQGTQVTVSS,low polyreactivity
3,QVQLVESGGGLVQAGGSLRLSCAASGSTFWFYAMGWYRQAPGKERELVAAISSSGTNTYYADSVKGRFTISRDNAKNTVYLQMNSLKPEDTAVCYCAAQYRGSYRTTYDYWGQCTQVTVSS,low polyreactivity
4,QVQLVESGGGLVQAGGSLRLSCAASGSTFWGNAMGWYRQAPGKERELVAAISTSDTSTYYADSVKGRFTISRDNAKNTVYLQMNSLKPEDTAVYYCAAEWYYGEKYDYWVQGTQVTVSS,low polyreactivity
5,QVQLVESGGGLVQAGGSLRLSCAASGSTFWGYALGWYRQAPGKERELVASIRRGASTTYADSVKGRFTISRDNAKNTVYLQMNSLKPEDSAVYYCAKPGYFRSHDYWGQGTQVTVSS,low polyreactivity
6,QVQLVESGGGLVQAGGSLRLSCAASGSTFWGYVMGWYRQAPGKERELVAAITGSGGSTYYADSVKGRFTISRDNAKNTVYLQMNSLKPEDTAVYYCAAAWSKSTSRRYGYWGQGTQVTVSS,low polyreactivity
7,QVQLVESGGGLVQAGGSLRLSCAASGSTFWIYAMGWYRQAPGKERELVAAISWSTGRTYYADSVKGRFTISRDNAKNTVYLQMNSLKPEDTAVYYCNAGPQHNTLKLFYYWGQGTQVTVSS,low polyreactivity
8,QVQLVESGGGLVQAGGSLRLSCAASGSTFWKYAMGWYRQAPGKERELVAAINTSGGRTYYADSVKGRCTISRDNAKNTVYLQMNSLKPEDTAVYYCNARQGITYKDGRSIKYDYWGQGTQVTGSS,high polyreactivity
9,QVQLVESGGGLVQAGGSLRLSCAASGSTFWKYAMGWYRQAPGKERELVAAITRNGGRTFYADSVKGRFTISRDNAKNTVYLQMNSLKPEDTAVYYCNATAGHGYYYWGQGTQVTVSS,high polyreactivity
10,QVQLVESGGGLVQAGGSLRLSCAASGSTFWKYVMGWYRQAPGKVRELVAAITSRGGSTYADSVKGRFTISRDNAKNTVYLQMNSLKPEDTAVYYCAATKFWYYGYDYWGQGTQVTVSS,low polyreactivity
11,QVQLVESGGGLVQAGGSLRLSCAASGSTFWLNAMGWYRPAPGKEWEFVAAITVRGGSTYYADSVKGRFTISRDNAKNTVYLQMNSLKPEDTAVYYCNKGSIEKTEMEYWGQGTQVTVSS,low polyreactivity
12,QVQLVESGGGLVQAGGSLRLSCAASGSTFWLYAMGWYRQAPGKERELVAAISSTGNTNYADSVKGRFTISRDNAKNTVYLQMNSLKPEDTAVYYCAADSWDYDSRMDYWGQGTQVTVSS,low polyreactivity
13,QVQLVESGGGLVQAGGSLRLSCAASGSTFWNNAMGWYRQAPGKERELVAVINSSGGSTYYADSVKGRFTISRDNAKNTVYLQMNSLKPEDTAVYYCNADATDSYPEKDEHDSWGQGTQVTVSS,low polyreactivity
14,QVQLVESGGGLVQAGGSLRLSCAASGSTFWPYAMGWCRQAPGKERELVAAITWSGGRTYYADSVKGRFTISRDNAKNTVYLQMYSLKPEDTAVYYCAAYYRQGIAPNGFDYWGQGTQVTVSS,high polyreactivity
15,QVQLVESGGGLVQAGGSLRLSCAASGSTFWPYAMGWYRQAPGKERELVAAIRVIGGSTYYADSVKGRFTISRDNAKNSVYLQMNSLKPEDTAVYYCNAYRPGGARFYARYRYDYWGQGTQVTVSS,low polyreactivity
16,QVQLVESGGGLVQAGGSLRLSCAASGSTFWPYAMGWYRQATGKERELVAAISNGGGTKYADSVKGRFTISRDNAKNTVYLQMNSLKPEDTAVYYCAKTLWTGRAWYDYWGQGTQVTVSS,high polyreactivity
17,QVQLVESGGGLVQAGGSLRLSCAASGSTFWRNALGWYRQAPGKERELVAAITDSGDSTYYADSVKGRFTISRDTAKNTVYLQMHSLKPEDTAVYYCAVDKLSLYGWDEYWGQGTQVTVSS,low polyreactivity
18,QVQLVESGGGLVQAGGSLRLSCAASGSTFWRYAMGWYRQAPGKERELVAAITSSGDRTYYADSVKGRFTISRDNAKNTVYLQMNSLKPEDTAVYYCAAALWSSRGYYYAYYYWGQGTQVTVSS,high polyreactivity
19,QVQLVESGGGLVQAGGSLRLSCAASGSTFWSYAIGWYRQAPGKERELVATISAGGGSTSYADSVKGRFTISRDNAKNTVYLQMNSLKPEDTAVYYCATGYSDSSRYGGYYKFDYWGQGTQVTVSS,low polyreactivity
20,QVQLVESGGGLVQAGGSLRLSCAASGSTFWSYAMGWYRQAPGKERELVAVITWSGGSTNYADSVKGRFTISRDNAKNTVYLQMNSLKPEDTAVYYCNAPYYFWSYIYDYLGQGTQVTVSS,low polyreactivity
21,QVQLVESGGGLVQAGGSLRLSCAASGSTFWSYTMGWYRQAPGKEREWVAAISRSGGSTYYADSVKGRFTISRDNAKNTVYLQLNSLKPEDTAVYYCAAADRYGSRYYYWGQGTQVTVSS,high polyreactivity
